This test has as its target P2C-1F11 monoclonal antibody (human). Briefly: SPR.

As for “SARS-CoV-2 receptor-binding domain (RBD), residues Arg319 to Lys529 (from UniProt P0DTC2 319-529) (domain or fragment)”, the Kd is 1.72 nM.

The record behind these values is paper PMC7801515.
